Experiments:
[1] = target: T1, human soluble FLT3L (recombinant huFLT3L) (human, UniProt P49771 27-184); test: cell-based or functional assay
T1 sequence (looked up): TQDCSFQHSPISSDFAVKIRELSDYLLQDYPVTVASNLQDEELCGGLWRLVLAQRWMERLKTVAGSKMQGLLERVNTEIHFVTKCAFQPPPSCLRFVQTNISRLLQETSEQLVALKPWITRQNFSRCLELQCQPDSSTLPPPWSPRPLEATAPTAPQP

[2] = target: cynomolgus monkey soluble FLT3L (cynomolgus monkey); test: cell-based or functional assay
[3] = target: T1, human soluble FLT3L (recombinant …); test: cell-based or functional assay; remark: listed apart in the source
[4] = target: T2, recombinant human stem cell factor (SCF) (human, UniProt P21583 26-189); test: ELISA on coated recombinant human SCF
T2 construct: also called huSCF; KIT-ligand
Experimental: (§1) To test this, an ELISA plate was coated with 2 µg of recombinant human SCF or CSF1. After washing, the plate was blocked with 3% milk in Tris-Phosphate Buffered Saline (TPBS) and lead antibodies were added in serial (×2) dilution, starting at 50 µg/ml. After incubation, unbound antibody was removed by washing and bound antibody was detected using anti-human IgG-HRP in combination with TMB substrate for color development. Commercially available goat anti-SCF pAb and mouse anti-CSF1 mAb were used as positive binding controls.

[5] = target: T3, recombinant human colony stimulating factor 1 (CSF1) (human, UniProt P09603 33-190, limits assumed); test: ELISA on coated recombinant human CSF1
T3 construct: also called huCSF1; huCSF
T3 sequence (looked up): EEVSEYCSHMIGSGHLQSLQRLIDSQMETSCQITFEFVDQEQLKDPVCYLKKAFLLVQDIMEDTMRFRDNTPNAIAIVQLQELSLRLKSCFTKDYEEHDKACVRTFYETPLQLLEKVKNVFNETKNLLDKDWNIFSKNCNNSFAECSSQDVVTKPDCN
Experimental: as §1

[6] = target: T4, cynomolgus monkey FLT3L on CHO cells (cynomolgus monkey); test: flow cytometry on CHO cells expressing full-length cyno FLT3L, PE anti-hu IgG
T4 construct: whole, on cells; also called cell surface cyno FLT3L
Experimental: (§2) Consistent with this, cell surface binding to human, cyno, and mouse FLT3L was evaluated by transfecting Chinese hamster ovary (CHO) cells with the respective full-length protein for each species. Candidate clones were incubated with FLT3L-expressing cell lines for 1 hour at 4° C. before being washed twice to remove unbound antibody. Cells were then incubated with PE-labeled goat anti-hu IgG secondary detection pAb to quantitate bound antibody which was measured by flow cytometric analysis of PE signal. The huFLT3-Fc construct, on a hu IgG backbone, was used as a positive control reagent for FLT3L expression as it cross reacts with cyno and mouse, in addition to human ligand.
(§3) As differences were apparent in the degree of receptor occupancy for each clone, both EC50 and max occupancy were noted (expressed as percent relative to FLT3-Fc) and taken into account in the final evaluation. Results are shown in Table 4 for human, cyno, and mouse FLT3L expressed in CHO cells.

[7] = target: T5, mouse FLT3L on CHO cells (mouse, UniProt P49772 27-232); test: flow cytometry on CHO cells expressing mouse FLT3L, anti-hu IgG-PE detection
T5 construct: whole, on cells; also called cell surface mouse FLT3L
T5 sequence (looked up): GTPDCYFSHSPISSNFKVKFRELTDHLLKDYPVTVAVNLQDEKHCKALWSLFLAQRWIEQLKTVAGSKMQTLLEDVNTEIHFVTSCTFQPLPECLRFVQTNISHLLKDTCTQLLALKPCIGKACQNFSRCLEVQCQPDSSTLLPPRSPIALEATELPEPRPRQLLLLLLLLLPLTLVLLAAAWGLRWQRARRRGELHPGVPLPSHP
Experimental: as §2

[8] = target: T6, mouse soluble FLT3L (mouse, UniProt P49772 27-189); test: inhibition of FLT3 downregulation on RS4;11 cells by soluble mouse FLT3L (N/A in Table 3)
T6 construct: extracellular domain; also called mouse sFLT3L; muFLT3L
T6 sequence (looked up): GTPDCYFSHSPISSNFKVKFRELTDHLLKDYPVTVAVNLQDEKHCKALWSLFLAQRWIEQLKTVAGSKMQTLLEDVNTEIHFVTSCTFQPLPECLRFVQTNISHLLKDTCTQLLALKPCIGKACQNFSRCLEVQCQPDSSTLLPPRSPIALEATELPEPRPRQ
Experimental: Screening assay conditions were further refined to determine ideal cell culture conditions for evaluating anti-FLT3L candidate clones. Final conditions were: 50,000 RS4;11 cells per well incubated with 96 pM rhuFLT3L with or without anti-FLT3L mAb candidate clones in complete Roswell Park Memorial Institute (RPMI) media with one percent bovine serum albumin (BSA) for 2 hours in an humidified incubator set at 37° C., 5% CO2. Subsequent downregulation of FLT3 expression was determined by flow cytometry as measured either as raw MFI or % downregulation. […] (FIG. 3A). Assay efficacy was confirmed using a commercially available mouse anti-huFLT3L antibody control (MAB608, R&D Systems) (FIG. 3B). Due to the cross-species reactivity of FLT3 with its ligand, this assay was effective for testing clones against human, cyno, and rodent FLT3L, despite being a human cell line. For mouse FLT3L, the EC80 was 36 pM.
Upon ligation of FLT3L to FLT3, the receptor dimerizes, autophosphorylates, and propagates a signaling cascade once internalized. This process, measured by FLT3 downregulation, can be inhibited by antibodies that bind FLT3L. Thus, lead candidates were tested for their ability to inhibit FLT3 downregulation on RS4;11 cells by binding human, mouse, or cynomolgus monkey (cyno) soluble FLT3L (sFLT3L). […] FLT3 expression on RS4;11 cells was determined using flow cytometry and reported as MFI.

[9] = target: T7, human FLT3L on the cell surface (human, UniProt P49771 27-235); test: flow cytometry on CHO cells expressing full-length human FLT3L, PE anti-hu IgG; CHO cells transfected with full-length human FLT3L, PE anti-hu IgG
T7 construct: whole, on cells; The assay field of each row says which cells carried it; also called cell-surface FLT3L; huFLT3L-expressing CHO cells
T7 sequence (looked up): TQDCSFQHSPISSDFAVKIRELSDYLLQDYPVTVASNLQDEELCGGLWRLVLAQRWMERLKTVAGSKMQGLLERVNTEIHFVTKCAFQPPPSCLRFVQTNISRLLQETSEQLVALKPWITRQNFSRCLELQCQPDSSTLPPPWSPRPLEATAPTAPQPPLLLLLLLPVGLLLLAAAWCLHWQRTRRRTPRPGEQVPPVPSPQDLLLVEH
Experimental: as §2, §3

[10] = target: T7, human FLT3L on the cell surface; test: flow cytometry on CHO cells expressing full-length human FLT3L, PE anti-hu IgG; CHO cells transfected with full-length human FLT3L; maximum occupancy relative to FLT3-Fc
Experimental: as §2, §3

T2 sequence (P21583 26-189 limits assumed): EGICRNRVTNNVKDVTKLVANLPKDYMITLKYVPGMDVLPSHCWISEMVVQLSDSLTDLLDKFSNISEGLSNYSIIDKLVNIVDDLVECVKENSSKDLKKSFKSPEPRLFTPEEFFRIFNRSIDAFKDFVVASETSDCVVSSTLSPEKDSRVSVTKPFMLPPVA

B1: CAT5D9 antibody (IgG1 TM format) (antibody, V domains shown)
VH: QVQLVQSGAEVKKPGSSVKVSCKISGGTFSSYALSWVRQAPGQGLEWMGGIIPVFRTASYAQKFQGRVTITVDESASTGYIELSSLKSEDTATYYCASNNYVWGSYRFWGQGTTVTVSS
VL: NFMLTQPHSVSESPGKTVTISCTRTSGNIAGYFVQWYQQRPGSSPTTVIYEDYQRPSGVPDRFSGSIDRSSNSASLTISGLKPDDEADYYCQSYDDTSQGVFGAGTKVTVLG
notes: also called clone 5D9; parental 5D9
B1 was tested, and the “IC50 (nM), inhibition of FLT3 downregulation on RS4;11 cells” value [1] was 385 nM, the “IC50 (nM), inhibition of FLT3 downregulation on RS4;11 cells” value [2] was 564 nM and the “IC50 (nM) against 0.476 nM FLT3L, ERK phosphorylation in CD133+ stem cells” value [3] was 187 nM. For the same binder, the “IC50 (nM) against 0.476 nM FLT3L, MEK phosphorylation in CD133+ stem cells” value [3] was 181 nM, the binding result [4] was “no binding (tested: about 0.3 uM)” and the binding result [5] was “no binding (tested: about 0.3 uM)”. For the same binder, the EC50 [6] was 1.1 nM, the “maximum occupancy (% relative to FLT3-Fc)” value [6] was 100% and the binding result [7] was “no binding (tested: x = -7.2 (x axis without title or unit))”. For the same binder, the binding result [8] was “no binding”, the EC50 [9] was 0.157 nM and the “maximum occupancy (% relative to FLT3-Fc)” value [10] was 40%.

— patent US20230056815A1 (VIELA BIO, published 2023)
